Results published in paper PMC12159676, “An uncharacterized gene from the Actinobacillus genus encodes a glucosyltransferase with successive transfer activity and unique substrate specificity” (The Journal of Biological Chemistry, 2025).
Changes are numbered by the printed parent chain. Numbers in names are those of the source.

B1: Actinobacillus minor glucoside-glucosyltransferase (AmGGT), wild type (enzyme, Actinobacillus minor NM305, UniProt C5RYK2 1-341, looked up)
chain: MSNITFYFPFGHVPTYGGDFVNLEHIRALNKHGFSAKVILMKNQIPIVIESFPKDIPVVFYKPGMELNAQDVFVLSEGVRIMYSGLAQTQAFRVIVHNQNPFYTHTGMDSAHDINRYRITKIITPSHYTVKKLEEMGITKPMAVISPYIPEYFKPAEKSNEEIRITYSRRKREEESKILLFYLRSLYRGKKALHIRNLTNYKREEVAEEMSKAHIYASFAERESLGLMALEAMASGCHVVGFSGFTDFENQDVFNEENGDWVKEGEYKKFAEKLIEAIEQIENNTPSPKIENGLALVNSRFRQDRFEQEVVRVYQDILDNLPPLEGFNESDKVVLDFWHFD
notes: AmGGT, product of the ORF AM305_00150 of Actinobacillus minor strain NM305; ORF retrieved from NCBI, chemically synthesized, cloned into pET47b; The whole ORF was cloned; residues left over from the 3C protease site after cleavage are not described; also called AM305_00150 protein; WT AmGGT; source: E. coli BL21(DE3), purified (Ni-Sepharose, 3C protease cleavage, gel filtration; also HiTrapQ ion …)
B2: AmGGT E135A mutant (enzyme)
chain: B1 chain with E135A
notes: AmGGT, product of the ORF AM305_00150 of Actinobacillus minor strain NM305, with E135A; Production of the mutants is not described separately; source: E. coli BL21(DE3), purified (as told for the AmGGT protein); not shown: His6, N-terminal, cleaved
B3: AmGGT S185A mutant (enzyme)
chain: B1 chain with S185A
notes: AmGGT, product of the ORF AM305_00150 of Actinobacillus minor strain NM305, with S185A; Production of the mutants is not described separately; source: E. coli BL21(DE3), purified (as told for the AmGGT protein); not shown: His6, N-terminal, cleaved

Biological target: the molecule itself
Experiment: SEC; gel-filtration chromatography of purified AmGGT and its mutants, with protein size markers; self-association, dimer against monomer

| Protein | stoichiometry N | binding result |
| --- | --- | --- |
| B1 | 2 | – |
| B2 | – | binds |
| B3 | – | binds |
